What was measured:
[1] = system: Blumeria graminis f.sp. hordei; experiment: Transient transformation of barley leaf segments, powdery mildew penetration; format: cell-based, barley cv. Pallas; conditions: for haustorial growth of the fungus in transformed cells: Calcofluor staining, fluorescence microscopy; for effect on total number or number of attacked GFP-expressing cells: compared with control cDNA experiments; for average % RPE value (relative penetration efficiency): deviation from average penetration efficiency of the control; for reduction of penetration efficiency by Blumeria graminis f.sp. hordei: on average, six experiments, versus control cDNA (TR), 48 hours after inoculation
Procedure: Barley cv. Pallas leaf segments were transformed with a cDNA of Pp291 or Pp364 which were present in the GFP expression vector (green fluorescence protein). The leaves were subsequently inoculated with the pathogenic fungus Blumeria graminis f.sp. hordei (powdery mildew of barley), and the result was analyzed after 48 hours by means of light microscopy and fluorescence microscopy. The penetration into GFP-expressing cells was assessed by detecting haustoria in live cells and by assessing the fungal development in precisely those cells. […].
The transient transformation of barley was carried out with a method which had already been described for the biloistic introduction of cDNA into epidermal cells of barley leaves (Schweizer P et al. (1999) Mol Plant Microbe Interact 12:647-54; Schweizer P et al. (2000) Plant J 2000 24:895-903). Tungsten particles with a diameter of […] (particle density 25 mg/ml) were coated with cDNA together with plasmid DNA of the vector pGFP (GFP under the control of the CaMV 35S promoter) as transformation marker. To this end, the following amount of cDNA and reporter plasmid were used for coating purposes for each bombardment: 1 mg of pGFP and 2 mg of cDNA. To prepare the microcarriers, 55 mg of tungsten particles (M 17, diameter […]; Bio-Rad, Munich) were washed twice with 1 ml of autoclave distilled water and once with 1 ml of absolute ethanol, dried and taken up in 1 ml of 50% strength glycerol (approximately 50 mg/ml stock solution). The solution was diluted with 50% strength glycerol to 25 mg/ml, mixed thoroughly before use and suspended in an ultrasonic bath. To coat the microcarriers, 1 mg of plasmid, 2 mg of cDNA (1 mL), […] of tungsten particle suspension (25 mg/ml), […] of 1 M Ca(NO3)2 solution (pH 10) per bombardment were combined dropwise with constant mixing, left to stand for 10 minutes at RT and centrifuged briefly, and […] of supernatant were removed. The remainder, which contained the tungsten particles, is resuspended (ultrasonic bath) and employed in the experiment.
Barley primary leaf segments approximately 4 cm in length were used. The tissue was placed on 0.5% Phytagar (GibcoBRLt Life Technologiest, Karlsruhe) supplemented with […] benzimidazole in Petri dishes (diameter 6.5 cm); immediately prior to the particle bombardment, the edges were covered with a stencil with a rectangular slot 2.2 cm×2.3 cm in size. One after the other, the dishes were placed on the bottom of the vacuum chamber (Schweizer P et al. (1999) Mol Plant Microbe Interact 12:647-54) above which a nylon mesh (mesh size 0.2 mm, Millipore, Eschborn) had been inserted on a perforated board (5 cm above the bottom, 11 cm underneath the macrocarrier, see hereinbelow) to act as diffuser in order to diffuse particle aggregations and to slow down the particle stream. For each bombardment, the macrocarrier (plastic sterile filter holder 13 mm, Gelman Sciences, Swinney, UK) which had been attached at the top of the chamber was loaded with […] of DNA-coated tungsten particles (microcarrier, see hereinbelow). The pressure in the chamber was reduced by 0.9 bar using a membrane vacuum pump (Vacuubrand, Wertheim), and the surface of the plant tissue was bombarded with the tungsten particles at a helium gas pressure of 9 bar. The chamber was aerated immediately thereafter.
To label transformed cells, the leaves were bombarded with the plasmid (pGFP; pUC18-based vector, CaMV 35S promoter/terminator cassette with inserted GFP gene; Schweizer P et al. (1999) Mol Plant Microbe Interact 12:647-54; provided by Dr P. Schweizer, Schweizer P, Institute of Plant Genetics IPK, Gatersleben, Germany). Before carrying out the bombardment with another plasmid, the macrocarrier was cleaned thoroughly with water in each case. […]

[2] = system: pathogenic fungus or bacterium (Blumeria graminis, Pythium spec., Botrytis cinerea, Pseudomonas syringae and others); experiment: Pathogen infection of transgenic Arabidopsis thaliana; format: in vivo; conditions: transgenic plants, sense orientation; fluorescence and light microscopy
[3] = HPLC analysis of DNPH-derivatized volatile aldehydes; format: biochemical; conditions: substrates 13-HPOTE and 9-HPODE, DNPH derivatives
Text: The reaction of hydroperoxides with DES gives rise to divinyl ethers which hydrolyze in an acidic environment to give aldehydes. These aldehydes are volatile. In order to identify these aldehydes which are formed, they can be derivatized with DNPH (Kohlmann et al.; 1999, Eur. J. Biochem. 260, 885-895). The hydrazones thus formed are no longer volatile and can be identified with the aid of an HPLC analysis via their retention time.

Row | Molecule | haustorial growth of the fungus in transformed cells [1] | effect on total number or number of attacked GFP-expressing cells [1] | average % RPE value (relative penetration efficiency) [1] | reduction of penetration efficiency by Blumeria graminis f.sp. hordei [1] | resistance to pathogens in comparison with the wild type [2] | formation of aldehydes in reaction mixture [3]
1 | Pp364 cDNA: complete cDNA encoding the Physcomitrella patens divinyl ether synthase, used to transform barley and Arabidopsis | no haustorial growth takes place | no effect | −30% | 44% | increased resistance | 
2 | Pp291 cDNA: complete cDNA encoding the Physcomitrella patens allene oxide synthase, used to transform barley and Arabidopsis (nucleic acid, listed as Physcomitrella patens, CDS (1)..(1428) Pp291 Allenoxid-Synthase, complete cDNA encoding the Physcomitrella patens allene oxide synthase, used to transform barley and Arabidopsis) DNA: ATGGCAGTCCCTTCATCCAAGCTGCCGTTGAAGGCGATTCCTGGAGACTATGGAGTCCCCTACTTCGGTGCCATAAAGGATCGACTAGACTACTTTTGGTTGCAGGGGGAGGAGCAGTTTTACCGAAGCCGGATGGCCAAGTACAATAGCACGGTGTTTCGTGTCAACATGCCGCCTGGCCCTCCAATTTCCGAACACCCTCAAGTCATCTGCCTCTTGGATCAGAAAAGCTTTCCAATTCTGTTCGACGTTAGCAAGGTTGAGAAAAAGGACGTGTTCACAGGAACATACATGCCGAGTGTGAGCTTCACCAGCGGGTACCGCGTTTGCTCCTACTTGGATCCCTCTGAGGAACGCCACACGAAGCTCAAGCAATGGTGCTTTGAAGTCATTGCGATGAACGGGCGGAACTTTCTTCCCGAGTTTCACAAGTCGATTGAAGAGTCGATGGTGCTCTGGGAGACGAGTCTGGCCAAGGGCGAGAAGACTAGCGTATCGGATGAGGTGAAACAGTTCGCGTTTAATTTCCTGATGCGCGCTGTATGCCATCACGACCCCGCTGCGCCTGGAGAATACAGCTTAGGGCGTAATGGTGGCCCGTATGCAACCGCCTGGGCAAATCCCCAGCTCGCTCCGATTGCAGGACAGACGGGTCTCCCCCATGTCGTGGAGGAGCTCGTGTTACACACCGTCCCACTCCCCTCTGCCCTGGTCAAGAAGAACTACGATGCCCTCTACAATTTCATCAAAAACTACGCCACCGAGGCGCTGGATAGGGCTGAAGCTATGGGCATCGAGCGCAATGACGCCACTGCCAACCTGCTGTTCTTCCTTTGCTTTAACGCCTACGGCGGATTCAGCATCTTCTTCCCCCTCATCACTATCCTCATTTCTTCATGCGGTCCGGAGCTCATGCACGATCTCCACGACGAAGTCACCAAGGCCGTCGCCGCCACAGATGGGAAAGTCACTCTTCAATCCATCGAGAACATGCCATTGGTGAAGTCCGTCGTCTACGAAGCTTTCCGATTCAAGCCCCCAGTGCCATACCAATACGGCAAGGCCAAGTTCGACTTCACCATAGAGAACCACGAAAACTCCTTCGAGGTCAAGAAGGGAGAAATGCTGTATGGTTATCAACCTATCGTGATGCACGACCCCAAGGTCTTCTCGGACCCAGATCAGTTTCTACCTCGACGATTCATGGGCCCCGACGGCGAGAAGCTCATCAAATACATCTTCTGGTCCAATGGTTACGAGACTGACGAGCCGACTACCGCAAACAAGCAGTGCGCCGGAAAGGACTTGGTGGTCACAATGGCGCGAGCATTCGTCGCAGAAATGTTCTTGAGATATAAAGAGTATACCCTGACCATGGAGGGCGCAGGAAATGCGACCAAGGTTTTCTTTTCCGATCTCAAAAAGTGA | no haustorial growth takes place | no effect | −30% | 44% | increased resistance | 
3 | Pp364: Physcomitrella patens CYP74E divinyl ether synthase, 532 amino acids, recombinantly expressed in E. coli (protein, listed as Physcomitrella patens) MDRTLVLTCTTTCSHSAFRQSALPSNTSISVRLGTCSVRTQKRRTVVASLGNIETTSTSTVGQESNLPLREIPGSYGIPYLSQLLDRWTFFYREGEPQFWQSRMAKYGSTVIRSNMPPGWFWTDSRCIMLLDQKSYPTVFDYDKVDKYKAFAGTIMPSTEYNGGYEVCAYLDASDKKHEQLKGYCFELLKFSSSKWAREFHTAISETFNQWEGKLAQKTPALINPTLPESLFSFVINALTTARFDDSSIPDAEKPVCGDLQKWAGFQLMPVIRTGAPIYIEEMLHVAPIPASLTKGGYDKMVVFLQKYAAETLSIAEKFGLSQDEAVHNLIFFLILNAHGGFCRFLPVILREVAKNGQLQADLREEVRAAVKASGSDQVTMKAVMNDMPLVASTVFEALRFDPPVPFQYARAKKDFIIESHDARYQIKTGDFLGGVNYMVSRDPKVFTDRPNEFNARRFMGPEGDKLLAHLVWSNGRQTDETTVYTKQCAGKEIVPLTGRLLLAELFMRFDSFNIEGLEMEATFTSLTPRSD |  |  |  |  |  | aldehydes are formed
4 | Pp291: Physcomitrella patens CYP74A allene oxide synthase, 475 amino acids, recombinantly expressed in E. coli (protein, listed as Physcomitrella patens) MAVPSSKLPLKAIPGDYGVPYFGAIKDRLDYFWLQGEEQFYRSRMAKYNSTVFRVNMPPGPPISEHPQVICLLDQKSFPILFDVSKVEKKDVFTGTYMPSVSFTSGYRVCSYLDPSEERHTKLKQWCFEVIAMNGRNFLPEFHKSIEESMVLWETSLAKGEKTSVSDEVKQFAFNFLMRAVCHHDPAAPGEYSLGRNGGPYATAWANPQLAPIAGQTGLPHVVEELVLHTVPLPSALVKKNYDALYNFIKNYATEALDRAEAMGIERNDATANLLFFLCFNAYGGFSIFFPLITILISSCGPELMHDLHDEVTKAVAATDGKVTLQSIENMPLVKSVVYEAFRFKPPVPYQYGKAKFDFTIENHENSFEVKKGEMLYGYQPIVMHDPKVFSDPDQFLPRRFMGPDGEKLIKYIFWSNGYETDEPTTANKQCAGKDLVVTMARAFVAEMFLRYKEYTLTMEGAGNATKVFFSDLKK |  |  |  |  |  | No aldehydes were detected
